Data published in publication PMC5620043, “A general mechanism of ribosome dimerization revealed by single-particle cryo-electron microscopy” (Nature Communications, 2017).

Target: the molecule itself
Test: SEC-MALS; SEC-MALLS, Superdex 200 10/300, 100 mM Tris-HCl, 150 mM NaCl, pH 8.0; protein concentrated to about 4 mg/ml; three batches, two with 10% glycerol

B1: HPF^long from L. lactis with N-terminal Strep-tag (natural protein, UniProt A2RIX0 1-185, looked up)
chain: MIKFNIRGENVEVTDAIRAYVEDKIGKLDKYFNDGHEVTAYVNLKVYTEKRAKVEVTLPAKNVTLRAEDTSQDMYSSIDFVEEKLERQIRKYKTRMNRKPRNAVPTGQVFGDEFAPLDTTDEVAEDHVDIVRTKHVALKPMDAEEAVLQMDMLGHDFYVFTDADSNGTHVVYRRTDGRYGLIETE
notes: HPF^long of Lactococcus lactis, 185 residues, calculated monomer mass 21.3 kDa; also called purified HPF^long; source: overexpressed in L. lactis NZ9000, purified on a Strep-tactin Sepharose column
- stoichiometry N: 2
